The source of these data is patent US20100260668A1 (published 2010).

Several values for one entry are separate records, joined by “and”; a condition that tells them apart may be missing. Identical values can stand only once.

Assay [1] has as its target T1, DLL4 ECD/His tag (R&D 1506-D4-050) (UniProt Q9NR61 27-529).
T1 construct: extracellular domain; Bought antigen coated on the ELISA plate; not shown: His tag
The assay is described as follows: direct bind ELISA, DLL4 on plate; reference antibody.

Assay [2] concerns the target T2, CD40/FC (CD40 ECD/FC chimera-His tag) (UniProt P25942 21-193, limits assumed).
T2 construct: extracellular domain; Bought reagent
In words: Direct Bind ELISA, antigen on plate. (In general: In an ELISA, binding on a coated surface is turned into a signal by an enzyme label.)

Assay [3] addresses CD80/FC (B7-1 ECD/FC chimera) (UniProt P33681 35-242). The assay is described as follows: Direct Bind ELISA, antigen on plate.
Assay [4] deals with T3, CD-19 (UniProt P15391 20-291, limits assumed).
T3 construct: construct unknown
T3 sequence (looked up): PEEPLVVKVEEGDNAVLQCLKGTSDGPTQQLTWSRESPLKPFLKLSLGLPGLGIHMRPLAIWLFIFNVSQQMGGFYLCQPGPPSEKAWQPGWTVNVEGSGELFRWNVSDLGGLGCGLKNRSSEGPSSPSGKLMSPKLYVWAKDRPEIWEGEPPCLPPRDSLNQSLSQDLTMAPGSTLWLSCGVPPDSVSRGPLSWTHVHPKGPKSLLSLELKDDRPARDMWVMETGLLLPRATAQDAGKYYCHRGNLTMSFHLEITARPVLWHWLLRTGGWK
The assay is described as follows: Direct Bind ELISA, antigen on plate; N-terminal VD.

In assay [5] the target is T4, RON (MSP Receptor ECD-His tag, R&D Systems 1947-MS-050) (UniProt Q04912 25-957, limits assumed).
T4 construct: extracellular domain; not shown: His tag
The assay is described as follows: Direct bind ELISA on RON; reference antibody.

Assay [6] deals with CD22/FC (Siglec-2 ECD/FC chimera) (UniProt P20273 20-687). The assay is described as follows: Direct Bind ELISA, antigen on plate.
Assay [7] addresses T5, VEGF (VEGF 1-165 aa, R&D Systems 293-VE-010) (UniProt P15692 27-191).
T5 construct: bought reagent; also called vascular endothelial growth factor
In words: Direct bind ELISA, VEGF coated on plate; reference antibody printed beside DVD510.

The target in assay [8] is T5, VEGF (VEGF 1-165 aa, R&D Systems …). The assay is described as follows: Direct bind ELISA, VEGF coated on plate; reference antibody printed beside DVD503.
Assay [9] has the same target. In words: Direct bind ELISA, VEGF coated on plate; reference antibody printed beside DVD497.
For assay [10] the target is unchanged. The assay is described as follows: Direct bind ELISA, VEGF coated on plate; reference antibody printed beside DVD504.
The target is the same in assay [11]. The assay is described as follows: Direct bind ELISA, VEGF coated on plate; reference antibody printed beside DVD509.
For assay [12] the target is unchanged. In words: Direct bind ELISA, VEGF coated on plate; reference antibody printed beside DVD498.
Assay [13] has the same target. In words: Direct bind ELISA, VEGF coated on plate; reference antibody printed beside DVD491.
Assay [14] has the same target. The assay is described as follows: Direct bind ELISA, VEGF coated on plate; reference antibody printed beside DVD492.
The target of the next assay is T6, VEGF (UniProt P15692 27-191, limits assumed).
T6 construct: bought antigen coated on the ELISA plate
T6 sequence (P15692 other isoform, or with tags, fused parts or gaps limits assumed): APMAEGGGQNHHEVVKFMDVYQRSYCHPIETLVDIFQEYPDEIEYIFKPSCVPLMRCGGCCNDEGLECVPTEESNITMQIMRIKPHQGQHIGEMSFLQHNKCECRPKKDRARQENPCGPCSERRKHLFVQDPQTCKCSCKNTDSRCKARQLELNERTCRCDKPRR
In words: direct bind ELISA, reference antibody.

Assay [15] addresses T2, CD40/FC (CD40 ECD/FC chimera-His tag). In words: Direct Bind ELISA, antigen on plate; C-terminal VD.
Assay [16] has as its target T7, DLL4 (human, UniProt Q9NR61 27-685).
T7 construct: whole, on cells; also called human DLL4
The assay is described as follows: flow cytometry on cells carrying the target, 2 ug/mL; parent antibody. Background: A flow cytometer gives signals particle by particle.

For assay [17], the target named is T7, DLL4. In words: flow cytometry on 293G-human DLL4 cells; reference antibody.
In assay [18] the target is T3, CD-19. In words: Direct Bind ELISA, antigen on plate; C-terminal VD.

T5 sequence (P15692 other isoform, or with tags, fused parts or gaps limits assumed): as above
T2 sequence (P25942 21-193 limits assumed, change not shown): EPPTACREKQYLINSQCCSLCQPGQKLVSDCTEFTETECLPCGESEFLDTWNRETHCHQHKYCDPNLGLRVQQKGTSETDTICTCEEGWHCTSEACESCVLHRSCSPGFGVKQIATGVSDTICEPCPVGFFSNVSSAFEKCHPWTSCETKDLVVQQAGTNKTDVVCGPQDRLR
Sequence of CD80/FC (B7-1 ECD/FC chimera) (P33681 35-242, change not shown): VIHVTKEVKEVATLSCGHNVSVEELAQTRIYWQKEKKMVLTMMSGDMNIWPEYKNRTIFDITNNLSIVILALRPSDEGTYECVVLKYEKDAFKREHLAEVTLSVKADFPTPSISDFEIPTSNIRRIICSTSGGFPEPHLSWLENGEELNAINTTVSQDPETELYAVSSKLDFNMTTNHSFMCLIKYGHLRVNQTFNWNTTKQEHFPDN

B1: AB072 (antibody, human IgG1, kappa, V domains shown)
VH: EVQLQQSGPELVKPGASVKMSCKASGYTFTSYVINWVKQKPGQGLEWIGLINPYNDGTKYNEKFKVKATLTSDKSSSTAYMELSSLTSEDSAVYYCASYYYGSRYYFDYWGQGTTLTVSS
VL: DIQMTQSSSYLSVSLGGRVTITCKASDHINNWLAWYQQKPGNAPRLLISGATSLETGVPSRFSGSGSGKDYTLSITSLQTEDVATYYCQQYWSIPLTFGAGTKLELKR
notes: also called AB072-DLL-4
Regarding B1, in [1], the EC50 was 1.29 nM and 0.7 nM and 1.99 nM and 1.85 nM.

B2: AB009 (anti-CD-40 parent antibody) (antibody, IgG1, V domains shown)
VH: QVQLVESGGGVVQPGRSLRLSCAASGFTFSSYGMHWVRQAPGKGLEWVAVISYEESNRYHADSVKGRFTISRDNSKITLYLQMNSLRTEDTAVYYCARDGGIAAPGPDYWGQGTLVTVSS
VL: DIVMTQSPLSLTVTPGEPASISCRSSQSLLYSNGYNYLDWYLQKPGQSPQVLISLGSNRASGVPDRFSGSGSGTDFTLKISRVEAEDVGVYYCMQARQTPFTFGPGTKVDIRR
notes: HC vector V1 (wild-type hIgG1 constant), LC vector V2 (kappa constant); also called AB009VH; AB009VL
The molecule B2 registered an EC50 in assay [2] of 0.99 nM.

B3: AB007 (anti-CD-80 parent antibody) (antibody, IgG1, V domains shown)
VH: QVQLQESGPGLVKPSETLSLTCAVSGGSISGGYGWGWIRQPPGKGLEWIGSFYSSSGNTYYNPSLKSQVTISTDTSKNQFSLKLNSMTAADTAVYYCVRDRLFSVVGMVYNNWFDVWGPGVLVTVSS
VL: ESALTQPPSVSGAPGQKVTISCTGSTSNIGGYDLHWYQQLPGTAPKLLIYDINKRPSGISDRFSGSKSGTAASLAITGLQTEDEADYYCQSYDSSLNAQVFGGGTRLTVLG
notes: HC vector V1 (wild-type hIgG1 constant), LC vector V3 (lambda constant); also called AB007VH; AB007VL
Molecule B3 gave a half-maximal effective concentration (EC50) in assay [3] of 0.77 nM.

B4: DVD002 (CD-19 and CD-20 DVD-Ig) (bispecific antibody, IgG1)
VH: QVQLQQSGAELVRPGSSVKISCKASGYAFSSYWMNWVKQRPGQGLEWIGQIWPGDGDTNYNGKFKGKATLTADESSSTAYMQLSSLASEDSAVYFCARRETTTVGRYYYAMDYWGQGTSVTVSSASTKGPQVQLQQPGAELVKPGASVKMSCKASGYTFTSYNMHWVKQTPGRGLEWIGAIYPGNGDTSYNQKFKGKATLTADKSSSTAYMQLSSLTSEDSAVYYCARSTYYGGDWYFNVWGAGTTVTVSA
VL: DILLTQTPASLAVSLGQRATISCKASQSVDYDGDSYLNWYQQIPGQPPKLLIYDASNLVSGIPPRFSGSGSGTDFTLNIHPVEKVDAATYHCQQSTEDPWTFGGGTKLEIKRTVAAPQIVLSQSPAILSPSPGEKVTMTCRASSSVSYIHWFQQKPGSSPKPWIYATSNLASGVPVRFSGSGSGTSYSLTISRVEAEDAATYYCQQWTSNPPTFGGGTKLEIKR
notes: Outer AB006, inner AB001; HC vector V1 (wild-type hIgG1 constant), LC vector V2 (kappa constant); also called DVD002H; DVD002L
As for B4, the midpoint of the response with CD-19 [4], the EC50, lay at 0.07 nM.

B5: AB005 (anti-RON (seq. 1) parent antibody) (antibody, human IgG1, V domains shown)
VH: EVQLVQSGGGLVKPGGSLRLSCAASGFTFSSYAMHWVRQAPGKGLEWVAVISYDGSNKYYADSVKGRFTISRDNSKNTLYLQMNSLRAEDTAVYYCARFSGWPNNYYYYGMDVWGQGTTVTVSS
VL: DVVMTQSPLSLPVTPGEPASISCRSSQSLLHSNGFNYVDWYLQKPGQSPHLLIYFGSYRASGVPDRFSGSGSGTDFTLKISRVEAEDVGVYYCMQALQTPPWTFGQGTKVEIRR
notes: also called AB005VH; AB005VL
Consider B5, for which, in assay [5], the EC50 is 0.26 nM and 0.69 nM.

B6: AB008 (anti-CD-22 parent antibody) (antibody, IgG1, V domains shown)
VH: QVQLVQSGAEVKKPGSSVKVSCKASGYTFTSYWLHWVRQAPGQGLEWIGYINPRNDYTEYNQNFKDKATITADESTNTAYMELSSLRSEDTAFYFCARRDITTFYWGQGTTVTVSS
VL: DIQLTQSPSSLSASVGDRVTMSCKSSQSVLYSANHKNYLAWYQQKPGKAPKLLIYWASTRESGVPSRFSGSGSGTDFTFTISSLQPEDIATYYCHQYLSSWTFGGGTKLEIKR
notes: HC vector V1 (wild-type hIgG1 constant), LC vector V2 (kappa constant); also called AB008VH; AB008VL
In turn, B6 gave an EC50 in assay [6] of 3.44 nM.

B7: AB071 (antibody, human IgG1, kappa, L234A L235A, V domains shown)
VH: EVQLVESGGGLVQPGGSLRLSCAASGFTINASWIHWVRQAPGKGLEWVGAIYPYSGYTNYADSVKGRFTISADTSKNTAYLQMNSLRAEDTAVYYCARWGHSTSPWAMDYWGQGTLVTVSS
VL: DIQMTQSPSSLSASVGDRVTITCRASQVIRRSLAWYQQKPGKAPKLLIYAASNLASGVPSRFSGSGSGTDFTLTISSLQPEDFATYYCQQSNTSPLTFGQGTKVEIKR
notes: Parent anti-VEGF antibody
With B7, the EC50 in assay [7] turned out to be 37.8 nM; in assay [8], 37.8 nM; in [9], 45.7 nM; in assay [10], 37.8 nM; in assay [11] it was 37.8 nM; in [12] it was 45.7 nM. Moreover, the EC50 in assay [13] and in [14] was 45.7 nM throughout.

B8: AB071 (antibody, human IgG1, kappa, L234A L235A, V domains shown)
VH: EVQLVESGGGLVQPGGSLRLSCAASGFTINASWIHWVRQAPGKGLEWVGAIYPYSGYTNYADSVKGRFTISADTSKNTAYLQMNSLRAEDTAVYYCARWGHSTSPWAMDYWGQGTLVTVSS
VL: DIQMTQSPSSLSASVGDRVTITCRASQVIRRSLAWYQQKPGKAPKLLIYAASNLASGVPSRFSGSGSGTDFTLTISSLQPEDFATYYCQQSNTSPLTFGQGTKVEIKR
Take B8: in the assay with VEGF, the EC50 is 35.4 nM and 26.6 nM.

B9: DVD009 (CD-20 and CD-40 DVD-Ig) (bispecific antibody, IgG1)
VH: QVQLQQPGAELVKPGASVKMSCKASGYTFTSYNMHWVKQTPGRGLEWIGAIYPGNGDTSYNQKFKGKATLTADKSSSTAYMQLSSLTSEDSAVYYCARSTYYGGDWYFNVWGAGTTVTVSAASTKGPQVQLVESGGGVVQPGRSLRLSCAASGFTFSSYGMHWVRQAPGKGLEWVAVISYEESNRYHADSVKGRFTISRDNSKITLYLQMNSLRTEDTAVYYCARDGGIAAPGPDYWGQGTLVTVSS
VL: QIVLSQSPAILSPSPGEKVTMTCRASSSVSYIHWFQQKPGSSPKPWIYATSNLASGVPVRFSGSGSGTSYSLTISRVEAEDAATYYCQQWTSNPPTFGGGTKLEIKRTVAAPDIVMTQSPLSLTVTPGEPASISCRSSQSLLYSNGYNYLDWYLQKPGQSPQVLISLGSNRASGVPDRFSGSGSGTDFTLKISRVEAEDVGVYYCMQARQTPFTFGPGTKVDIRR
notes: Outer AB001, inner AB009; HC vector V1 (wild-type hIgG1 constant), LC vector V2 (kappa constant); also called DVD009H; DVD009L
B9 gave a 50% effective concentration (EC50) in assay [15] of 3.55 nM. This counts as single-digit nanomolar.

B10: AB015 (antibody, human IgG1, kappa)
heavy: not shown
light: DIQMTQSPSSLSASVGDRVTITCRASQDVSTAVAWYQQKPGKAPKLLIYSASFLYSGVPSRFSGSGSGTDFTLTISSLQPEDFATTYYCQQSYTGTVTFGQGTKVEIKRTVAAPSVFIFPPSDEQLKSGTASVVCLLNNFYPREAKVQWKVDNALQSGNSQESVTEQDSKDSTYSLSSTLTLSKADYEKHKVYACEVTHQGLSSPVTKSFNRGEC
notes: Parent antibody; also called AB015
For B10, in the assay with DLL4 [16], the “FACS Geometric Mean” value worked out at 308. It took 0.5 nM to reach a half-maximal effect with DLL4 [17] (EC50).

B11: DVD001 (CD-20 and CD-19 DVD-Ig) (bispecific antibody, IgG1)
VH: QVQLQQPGAELVKPGASVKMSCKASGYTFTSYNMHWVKQTPGRGLEWIGAIYPGNGDTSYNQKFKGKATLTADKSSSTAYMQLSSLTSEDSAVYYCARSTYYGGDWYFNVWGAGTTVTVSAASTKGPQVQLQQSGAELVRPGSSVKISCKASGYAFSSYWMNWVKQRPGQGLEWIGQIWPGDGDTNYNGKFKGKATLTADESSSTAYMQLSSLASEDSAVYFCARRETTTVGRYYYAMDYWGQGTSVTVSS
VL: QIVLSQSPAILSPSPGEKVTMTCRASSSVSYIHWFQQKPGSSPKPWIYATSNLASGVPVRFSGSGSGTSYSLTISRVEAEDAATYYCQQWTSNPPTFGGGTKLEIKRTVAAPDILLTQTPASLAVSLGQRATISCKASQSVDYDGDSYLNWYQQIPGQPPKLLIYDASNLVSGIPPRFSGSGSGTDFTLNIHPVEKVDAATYHCQQSTEDPWTFGGGTKLEIKR
notes: Outer AB001, inner AB006; HC vector V1 (wild-type hIgG1 constant), LC vector V2 (kappa constant); also called DVD001H; DVD001L
In turn, B11 had a 50% effective concentration (EC50) in the assay with CD-19 [18] of 12.9 nM.

Usually EC50 stands for the concentration giving half of the maximal effect.
